Test [1] has as its target human CAIX on CHO cells (CHO-hCAIX) (human) (UniProt Q16790). In words: flow cytometry on CHO-hCAIX cells. (In general: A flow cytometer gives signals particle by particle.)
Test [2] deals with murine CAIX on CHO cells (CHO-mCAIX) (mouse) (UniProt Q8VHB5). In words: flow cytometry on CHO-mCAIX cells.
In test [3] the target is monkey CAIX on CHO cells (CHO-cyCAIX) (monkey). Put plainly: flow cytometry on CHO-cyCAIX cells.
Test [4] addresses human CAIX antigen (purchased from AcroBiosystems) (human) (UniProt Q16790). Put plainly: BLI (ForteBio), method of Example 3.

Sequence of murine CAIX on CHO cells (CHO-mCAIX) (mouse) (Q8VHB5 32-437): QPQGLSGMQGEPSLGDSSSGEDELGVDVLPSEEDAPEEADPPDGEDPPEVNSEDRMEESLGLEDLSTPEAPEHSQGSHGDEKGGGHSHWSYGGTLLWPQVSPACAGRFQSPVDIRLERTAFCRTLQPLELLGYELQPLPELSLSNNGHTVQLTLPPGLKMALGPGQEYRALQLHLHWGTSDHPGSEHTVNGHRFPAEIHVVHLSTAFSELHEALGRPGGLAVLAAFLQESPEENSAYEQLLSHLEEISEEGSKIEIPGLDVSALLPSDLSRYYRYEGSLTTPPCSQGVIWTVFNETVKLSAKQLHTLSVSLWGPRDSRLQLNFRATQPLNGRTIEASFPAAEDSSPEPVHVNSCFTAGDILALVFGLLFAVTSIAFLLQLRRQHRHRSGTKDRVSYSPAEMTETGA

Turning to Gerentuximab (antibody), the EC50 (as a rule, the midpoint of the concentration-response curve) in test [1] came out at 16.5 nM. The substance further yielded a 50% effective concentration (EC50) in test [2] of 35.1 nM. The same substance came in with an EC50 in test [3] of 27.9 nM. Besides, in test [4], the Kd (usually the concentration at which binding is half-saturated) is 1.01 nM; the koff (in general, the rate constant with which the complex falls apart) was 0.0001 s⁻¹; the kon (as a rule, a measure of how fast the partners come together) turned out to be 98600 M⁻¹ s⁻¹.
